Biological target: SARS-CoV-2 Omicron BA.1 receptor-binding domain (RBD) (SARS-CoV-2 Omicron BA.1, strain, biotin on the AviTag (expressed in the presence of BirA))

B1: REGN10987 VH R16G-V108D (antibody, V domains shown)
VH: QVQLVESGGGVVQPGGSLRLSCAASGFTFSNYAMYWVRQAPGKGLEWVAVISYDGSNKYYADSVKGRFTISRDNSKNTLYLQMNSLRTEDTAVYYCASGSDYGDYLLDYWGQGTLVTVSS
VL: QSALTQPASVSGSPGQSITISCTGTSSDVGGYNYVSWYQQHPGKAPKLMIYDVSKRPSGVSNRFSGSKSGNTASLTISGLQSEDEADYYCNSLTSISTWVFGGGTKLTVL
B1: binds.

Reference: article PMC10869273 (Nature Biotechnology, 2023)
